To fix the notation:
B1: glmS ribozyme (parent)
chain: AUAAAAGCGCCAGAACUACAGAAAUGUAGUUGACGAGGAGGAGGUUUAUCGAAUUUUCGGCGGAUGCCUCCAAA

What all share (details): with glucosamine-6-phosphate
The variants in data set [1] derive from B1. Nature of the data set: self-cleavage kobs at 40 uM GlcN6P; higher = faster cleavage; RNA array. In outline:
(§1)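 Barcoded ribozyme variants were transcribed in situ on sequenced MiSeq chips by E. coli RNA polymerase. At 37 °C, a hybridised Cy3 probe tracked them while glucosamine-6-phosphate (40 μM to 10 mM) in HEPES/KCl/Mg(OAc)2 buffer flowed in and tiles were imaged over ~14 h. Per-tile medians of signals normalised to baseline and to non-cleaving reference variants were fit to one- or two-exponential decays, giving kobs. kcat and KM came from weighted Michaelis–Menten fits across concentrations.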

The variants in data set [2] derive from B1. Nature of the data set: self-cleavage kobs at 2500 uM GlcN6P; higher = faster cleavage; RNA array. The method, boiled down: as §1
Variants of B1 are the subject of data set [3]. Kind of data set: self-cleavage kobs at 160 uM GlcN6P; higher = faster cleavage; RNA array. The method, boiled down: as §1
Data set [4] covers variants of B1. Nature of the data set: self-cleavage kobs at 640 uM GlcN6P; higher = faster cleavage; RNA array. The method, boiled down:
as §1

Data set [5] covers variants of B1. Nature of the data set: self-cleavage kobs at 10000 uM GlcN6P; higher = faster cleavage; RNA array. The method, boiled down:
as §1

± gives the standard error. This sample holds only a part of the variants without activity. Where only a bound is given, the exact number is not on record here.

In the case of A36C U45G U65C, in the data set with glucosamine-6-phosphate [1], the “self-cleavage kobs at 40 uM GlcN6P” value was below 1e-05 s⁻¹. Moreover, the “self-cleavage kobs at 2500 uM GlcN6P” value with glucosamine-6-phosphate [2] is below 1e-05 s⁻¹.
Consider G44A G51A C67U, for which, in the data set with glucosamine-6-phosphate [1], the “self-cleavage kobs at 40 uM GlcN6P” value is below 1e-05 s⁻¹.
Turning to G44A C58A C70U, the “self-cleavage kobs at 40 uM GlcN6P” value with glucosamine-6-phosphate [1] is below 1e-05 s⁻¹. For the same variant, the “self-cleavage kobs at 160 uM GlcN6P” value with glucosamine-6-phosphate [3] is below 1e-05 s⁻¹. In the data set with glucosamine-6-phosphate [4], the “self-cleavage kobs at 640 uM GlcN6P” value was below 1e-05 s⁻¹.
On to G9C U57C C71A, for which, in the data set with glucosamine-6-phosphate [1], the “self-cleavage kobs at 40 uM GlcN6P” value is below 1e-05 s⁻¹. For the same variant, the “self-cleavage kobs at 10000 uM GlcN6P” value with glucosamine-6-phosphate [5] is below 1e-05 s⁻¹.
G38U A52C: the “self-cleavage kobs at 40 uM GlcN6P” value with glucosamine-6-phosphate [1] is below 1e-05 s⁻¹. Further, the “self-cleavage kobs at 640 uM GlcN6P” value with glucosamine-6-phosphate [4] was below 1e-05 s⁻¹. Besides, the “self-cleavage kobs at 10000 uM GlcN6P” value in the data set with glucosamine-6-phosphate [5] was below 1e-05 s⁻¹.
For A42G C50U G63U C71G, in the data set with glucosamine-6-phosphate [1], the “self-cleavage kobs at 40 uM GlcN6P” value is below 1e-05 s⁻¹. In the data set with glucosamine-6-phosphate [5], the “self-cleavage kobs at 10000 uM GlcN6P” value is below 1e-05 s⁻¹.
In the case of C34G A36G G37A A42U G51C C67U, the “self-cleavage kobs at 40 uM GlcN6P” value in the data set with glucosamine-6-phosphate [1] is below 1e-05 s⁻¹. Besides, the “self-cleavage kobs at 2500 uM GlcN6P” value with glucosamine-6-phosphate [2] is below 1e-05 s⁻¹.
Regarding U30A G59A G63A, the “self-cleavage kobs at 40 uM GlcN6P” value with glucosamine-6-phosphate [1] was below 1e-05 s⁻¹.
For C11U C58G C67U U69G, the “self-cleavage kobs at 40 uM GlcN6P” value with glucosamine-6-phosphate [1] is 3.48e-05 ± 1.2e-05 s⁻¹. In addition, the “self-cleavage kobs at 10000 uM GlcN6P” value in the data set with glucosamine-6-phosphate [5] came to 6.72e-05 ± 1.3e-05 s⁻¹.
Consider U31C G40A G59U, for which the “self-cleavage kobs at 40 uM GlcN6P” value in the data set with glucosamine-6-phosphate [1] is below 1e-05 s⁻¹. For the same variant, the “self-cleavage kobs at 640 uM GlcN6P” value with glucosamine-6-phosphate [4] was below 1e-05 s⁻¹. Further, in the data set with glucosamine-6-phosphate [2], the “self-cleavage kobs at 2500 uM GlcN6P” value is below 1e-05 s⁻¹. In the data set with glucosamine-6-phosphate [5], the “self-cleavage kobs at 10000 uM GlcN6P” value is below 1e-05 s⁻¹.
In the case of G29A U56A G63C, the “self-cleavage kobs at 40 uM GlcN6P” value with glucosamine-6-phosphate [1] was below 1e-05 s⁻¹.
As to C16G G35A, the “self-cleavage kobs at 40 uM GlcN6P” value with glucosamine-6-phosphate [1] is below 1e-05 s⁻¹. For the same variant, the “self-cleavage kobs at 160 uM GlcN6P” value with glucosamine-6-phosphate [3] was below 1e-05 s⁻¹. Also, the “self-cleavage kobs at 640 uM GlcN6P” value with glucosamine-6-phosphate [4] is below 1e-05 s⁻¹. Besides, the “self-cleavage kobs at 10000 uM GlcN6P” value with glucosamine-6-phosphate [5] is below 1e-05 s⁻¹.
For C50U C58U, the “self-cleavage kobs at 40 uM GlcN6P” value in the data set with glucosamine-6-phosphate [1] was below 1e-05 s⁻¹. In the data set with glucosamine-6-phosphate [4], the “self-cleavage kobs at 640 uM GlcN6P” value is below 1e-05 s⁻¹. Also, the “self-cleavage kobs at 10000 uM GlcN6P” value in the data set with glucosamine-6-phosphate [5] is below 1e-05 s⁻¹.
In the case of G32C G43U U47C, in the data set with glucosamine-6-phosphate [1], the “self-cleavage kobs at 40 uM GlcN6P” value was below 1e-05 s⁻¹.
In the case of G40A U46G, the “self-cleavage kobs at 40 uM GlcN6P” value with glucosamine-6-phosphate [1] was found to be 4.29e-05 ± 1.2e-05 s⁻¹. In the data set with glucosamine-6-phosphate [2], the “self-cleavage kobs at 2500 uM GlcN6P” value came out at 0.000841 ± 0.00023 s⁻¹. Also, the “self-cleavage kobs at 10000 uM GlcN6P” value with glucosamine-6-phosphate [5] was found to be 0.00152 ± 0.00029 s⁻¹.
Take C10A G62U: the “self-cleavage kobs at 40 uM GlcN6P” value with glucosamine-6-phosphate [1] is below 1e-05 s⁻¹. Further, the “self-cleavage kobs at 160 uM GlcN6P” value in the data set with glucosamine-6-phosphate [3] is below 1e-05 s⁻¹. For the same variant, the “self-cleavage kobs at 10000 uM GlcN6P” value with glucosamine-6-phosphate [5] was below 1e-05 s⁻¹.
With A6G C11U C16A A64G, the “self-cleavage kobs at 40 uM GlcN6P” value with glucosamine-6-phosphate [1] was below 1e-05 s⁻¹. Further, the “self-cleavage kobs at 160 uM GlcN6P” value in the data set with glucosamine-6-phosphate [3] is below 1e-05 s⁻¹. In addition, the “self-cleavage kobs at 640 uM GlcN6P” value with glucosamine-6-phosphate [4] was below 1e-05 s⁻¹. In addition, the “self-cleavage kobs at 10000 uM GlcN6P” value with glucosamine-6-phosphate [5] is below 1e-05 s⁻¹.
For A33U A64U, the “self-cleavage kobs at 40 uM GlcN6P” value in the data set with glucosamine-6-phosphate [1] is below 1e-05 s⁻¹. Also, the “self-cleavage kobs at 640 uM GlcN6P” value with glucosamine-6-phosphate [4] was below 1e-05 s⁻¹. For the same variant, the “self-cleavage kobs at 10000 uM GlcN6P” value with glucosamine-6-phosphate [5] is below 1e-05 s⁻¹.
As to C11U G13U U57C G62C C67A, the “self-cleavage kobs at 40 uM GlcN6P” value with glucosamine-6-phosphate [1] is below 1e-05 s⁻¹.
G44C U54A U57A U65G U69G: in the data set with glucosamine-6-phosphate [1], the “self-cleavage kobs at 40 uM GlcN6P” value is below 1e-05 s⁻¹. The “self-cleavage kobs at 10000 uM GlcN6P” value with glucosamine-6-phosphate [5] is below 1e-05 s⁻¹.
Regarding U46A U49C, in the data set with glucosamine-6-phosphate [1], the “self-cleavage kobs at 40 uM GlcN6P” value is below 1e-05 s⁻¹. The “self-cleavage kobs at 160 uM GlcN6P” value with glucosamine-6-phosphate [3] is below 1e-05 s⁻¹. In the data set with glucosamine-6-phosphate [4], the “self-cleavage kobs at 640 uM GlcN6P” value was below 1e-05 s⁻¹. The “self-cleavage kobs at 2500 uM GlcN6P” value in the data set with glucosamine-6-phosphate [2] was below 1e-05 s⁻¹. Besides, in the data set with glucosamine-6-phosphate [5], the “self-cleavage kobs at 10000 uM GlcN6P” value is below 1e-05 s⁻¹.
Take G7A G29C U57G C70G: the “self-cleavage kobs at 40 uM GlcN6P” value in the data set with glucosamine-6-phosphate [1] came to 0.000158 ± 7.6e-05 s⁻¹. Also, the “self-cleavage kobs at 10000 uM GlcN6P” value with glucosamine-6-phosphate [5] was found to be 0.000678 ± 0.00017 s⁻¹.
C16A G43A: in the data set with glucosamine-6-phosphate [1], the “self-cleavage kobs at 40 uM GlcN6P” value is below 1e-05 s⁻¹.
As for C8G G63C, the “self-cleavage kobs at 40 uM GlcN6P” value with glucosamine-6-phosphate [1] is below 1e-05 s⁻¹. The “self-cleavage kobs at 160 uM GlcN6P” value in the data set with glucosamine-6-phosphate [3] is below 1e-05 s⁻¹. Further, the “self-cleavage kobs at 640 uM GlcN6P” value with glucosamine-6-phosphate [4] is below 1e-05 s⁻¹. Besides, in the data set with glucosamine-6-phosphate [2], the “self-cleavage kobs at 2500 uM GlcN6P” value was below 1e-05 s⁻¹.
For the variant A12U G32C G41U C61A, in the data set with glucosamine-6-phosphate [1], the “self-cleavage kobs at 40 uM GlcN6P” value is below 1e-05 s⁻¹.
Regarding C10A G40A, the “self-cleavage kobs at 40 uM GlcN6P” value in the data set with glucosamine-6-phosphate [1] was below 1e-05 s⁻¹. The “self-cleavage kobs at 160 uM GlcN6P” value with glucosamine-6-phosphate [3] was below 1e-05 s⁻¹. The “self-cleavage kobs at 640 uM GlcN6P” value with glucosamine-6-phosphate [4] was below 1e-05 s⁻¹. In the data set with glucosamine-6-phosphate [2], the “self-cleavage kobs at 2500 uM GlcN6P” value is below 1e-05 s⁻¹. Also, the “self-cleavage kobs at 10000 uM GlcN6P” value in the data set with glucosamine-6-phosphate [5] was below 1e-05 s⁻¹.

The record behind these values is the supplement of paper PMC7125110.
